Measured values as given in patent US20090081197A1 (PALATIN TECHNOLOGIES, published 2009).
Like-named read-outs stand apart in the source and are kept apart here. Starred links: 1 amine or outer side, 2 acyl side, 3 side chain; linkers in the order of their positions; H or OH if unused. Positions of bridges follow the written chain, without caps; N, C: chain ends. Non-standard residues stand in square brackets, D forms with d. No end group written: not given here. Ser(Bzl) = O-benzyl-serine, O=C([C@H](COCc1ccccc1)N[*:1])[*:2]; dPhe(4-Cl) = N[C@H](Cc1ccc(Cl)cc1)C(=O)O; 1Nal = N[C@@H](Cc1cccc2ccccc12)C(=O)O; 2Nal = N[C@@H](Cc1ccc2ccccc2c1)C(=O)O; d2Nal = N[C@H](Cc1ccc2ccccc2c1)C(=O)O; Nle = CCCC[C@H](N)C(=O)O; Ahp = NCCCCCCC(=O)O

Columns and labels:
[1] = biological target: T1, human melanocortin 4 receptor (human, UniProt P32245 1-332); experiment: radioligand competition, [I125]-NDP-α-MSH, hMC4-R membranes
T1 construct: whole, on cells; cAMP assays used whole cells; also called hMC4-R; MC4-R
T1 sequence (P32245 whole entry): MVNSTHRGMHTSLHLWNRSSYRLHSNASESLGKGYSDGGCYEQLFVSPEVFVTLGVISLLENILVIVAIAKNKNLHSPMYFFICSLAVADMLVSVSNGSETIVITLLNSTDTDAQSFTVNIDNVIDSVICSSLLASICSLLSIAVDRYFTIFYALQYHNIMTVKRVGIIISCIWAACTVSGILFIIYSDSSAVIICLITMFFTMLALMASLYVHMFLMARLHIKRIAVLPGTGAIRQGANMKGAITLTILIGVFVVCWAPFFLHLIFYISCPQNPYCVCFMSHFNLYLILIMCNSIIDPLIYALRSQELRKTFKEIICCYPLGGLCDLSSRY

[2] = biological target: T2, human melanocortin 5 receptor (human, UniProt P33032 1-325); experiment: radioligand competition, [I125]-NDP-α-MSH, hMC5-R membranes
T2 construct: whole, on cells; also called hMC5-R; MC5-R
T2 sequence (P33032 whole entry): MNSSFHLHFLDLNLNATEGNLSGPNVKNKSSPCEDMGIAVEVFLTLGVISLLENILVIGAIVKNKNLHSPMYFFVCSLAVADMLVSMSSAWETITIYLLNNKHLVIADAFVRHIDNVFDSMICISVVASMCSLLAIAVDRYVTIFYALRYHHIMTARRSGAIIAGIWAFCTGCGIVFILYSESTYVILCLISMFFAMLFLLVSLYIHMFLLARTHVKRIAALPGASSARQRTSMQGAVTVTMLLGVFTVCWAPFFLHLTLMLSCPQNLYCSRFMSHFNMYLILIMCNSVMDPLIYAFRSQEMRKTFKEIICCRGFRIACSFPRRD

[3] = biological target: T1, human melanocortin 4 receptor; experiment: cell-based or functional assay
[4] = biological target: T3, human MC1-R (human, UniProt Q01726 1-317); experiment: radioligand competition, NDP-α-MSH, human MC1-R, normal system
T3 construct: whole, on cells; Used in separate experiments for Ki with NDP-α-MSH; the source of the membranes is not described; also called hMC1-R
T3 sequence (Q01726 whole entry): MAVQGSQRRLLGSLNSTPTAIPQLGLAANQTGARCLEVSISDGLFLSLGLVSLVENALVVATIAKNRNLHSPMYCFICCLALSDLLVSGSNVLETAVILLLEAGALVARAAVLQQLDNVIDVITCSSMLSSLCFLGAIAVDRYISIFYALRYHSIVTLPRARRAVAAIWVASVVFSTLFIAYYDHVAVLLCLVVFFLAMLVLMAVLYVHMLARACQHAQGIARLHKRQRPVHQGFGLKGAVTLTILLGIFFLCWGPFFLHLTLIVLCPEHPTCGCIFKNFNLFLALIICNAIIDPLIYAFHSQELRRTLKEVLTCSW

[5] = biological target: T4, human melanocortin 3 receptor (human, UniProt P41968 1-323); experiment: radioligand competition, [I125]-NDP-α-MSH, hMC3-R membranes
T4 construct: whole, on cells; also called hMC3-R; MC3-R
T4 sequence (P41968 whole entry): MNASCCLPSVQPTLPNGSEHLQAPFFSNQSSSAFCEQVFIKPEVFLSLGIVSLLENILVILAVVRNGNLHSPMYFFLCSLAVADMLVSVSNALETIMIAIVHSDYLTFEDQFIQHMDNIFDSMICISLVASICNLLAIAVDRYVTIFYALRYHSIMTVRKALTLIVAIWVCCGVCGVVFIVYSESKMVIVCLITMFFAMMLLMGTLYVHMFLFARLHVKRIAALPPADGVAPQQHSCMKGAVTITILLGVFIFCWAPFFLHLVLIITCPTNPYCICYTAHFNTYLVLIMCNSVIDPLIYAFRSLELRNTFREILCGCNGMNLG

[6] = biological target: T1, human melanocortin 4 receptor; experiment: cell-based or functional assay; remark: listed apart in the source
[7] = biological target: T5, MC1-R of B-16 mouse melanoma cells (mouse, UniProt Q01727 1-315); experiment: radioligand competition, [I125]-NDP-α-MSH, B-16 membranes
T5 construct: whole, on cells; also called B16-F10 (MC1-R)
T5 sequence (Q01727 whole entry): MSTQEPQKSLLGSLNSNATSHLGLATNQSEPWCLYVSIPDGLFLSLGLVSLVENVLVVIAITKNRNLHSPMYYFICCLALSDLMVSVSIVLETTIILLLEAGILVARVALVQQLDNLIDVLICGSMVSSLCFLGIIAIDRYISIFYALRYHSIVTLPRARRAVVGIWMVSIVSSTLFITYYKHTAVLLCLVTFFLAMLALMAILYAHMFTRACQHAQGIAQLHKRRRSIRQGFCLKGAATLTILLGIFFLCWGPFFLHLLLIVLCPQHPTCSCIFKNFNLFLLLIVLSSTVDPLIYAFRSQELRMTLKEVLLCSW

[8] = biological target: T1, human melanocortin 4 receptor; experiment: radioligand competition, [I125]-NDP-α-MSH, hMC4-R membranes; remark: listed apart in the source
[9] = biological target: T4, human melanocortin 3 receptor; experiment: radioligand competition, [I125]-NDP-α-MSH, hMC3-R membranes; remark: listed apart in the source
[10] = biological target: T5, MC1-R of B-16 mouse melanoma cells; experiment: radioligand competition, [I125]-NDP-α-MSH, B-16 membranes; remark: listed apart in the source
[11] = biological target: T2, human melanocortin 5 receptor; experiment: radioligand competition, [I125]-NDP-α-MSH, hMC5-R membranes; remark: listed apart in the source
[12] = biological target: T1, human melanocortin 4 receptor; experiment: cell-based or functional assay; remark: listed apart in the source
[13] = biological target: T2, human melanocortin 5 receptor; experiment: radioligand competition, [I125]-NDP-α-MSH, hMC5-R membranes; remark: listed apart in the source
[14] = biological target: T5, MC1-R of B-16 mouse melanoma cells; experiment: radioligand competition, [I125]-NDP-α-MSH, B-16 membranes; remark: listed apart in the source
[15] = biological target: T1, human melanocortin 4 receptor; experiment: radioligand competition, [I125]-NDP-α-MSH, hMC4-R membranes; remark: listed apart in the source
[16] = biological target: T4, human melanocortin 3 receptor; experiment: radioligand competition, [I125]-NDP-α-MSH, hMC3-R membranes; remark: listed apart in the source
[17] = biological target: T5, MC1-R of B-16 mouse melanoma cells; experiment: radioligand competition, [I125]-NDP-α-MSH, B-16 membranes; remark: listed apart in the source
[18] = biological target: T1, human melanocortin 4 receptor; experiment: radioligand competition, [I125]-NDP-α-MSH, hMC4-R membranes; remark: listed apart in the source
[19] = biological target: T2, human melanocortin 5 receptor; experiment: radioligand competition, [I125]-NDP-α-MSH, hMC5-R membranes; remark: listed apart in the source
[20] = biological target: T4, human melanocortin 3 receptor; experiment: radioligand competition, [I125]-NDP-α-MSH, hMC3-R membranes; remark: listed apart in the source
[21] = biological target: T1, human melanocortin 4 receptor; experiment: cell-based or functional assay; remark: listed apart in the source
[22] = biological target: T1, human melanocortin 4 receptor; experiment: cell-based or functional assay; remark: listed apart in the source
[23] = biological target: T5, MC1-R of B-16 mouse melanoma cells; experiment: radioligand competition, [I125]-NDP-α-MSH, B-16 membranes; remark: listed apart in the source
[24] = biological target: T1, human melanocortin 4 receptor; experiment: radioligand competition, [I125]-NDP-α-MSH, hMC4-R membranes; remark: listed apart in the source
[25] = biological target: T4, human melanocortin 3 receptor; experiment: radioligand competition, [I125]-NDP-α-MSH, hMC3-R membranes; remark: listed apart in the source
[26] = biological target: T1, human melanocortin 4 receptor; experiment: cell-based or functional assay; remark: listed apart in the source
[27] = biological target: T5, MC1-R of B-16 mouse melanoma cells; experiment: radioligand competition, [I125]-NDP-α-MSH, B-16 membranes; remark: listed apart in the source
[28] = biological target: T4, human melanocortin 3 receptor; experiment: radioligand competition, [I125]-NDP-α-MSH, hMC3-R membranes; remark: listed apart in the source
[29] = biological target: T1, human melanocortin 4 receptor; experiment: radioligand competition, [I125]-NDP-α-MSH, hMC4-R membranes; remark: listed apart in the source
[30] = biological target: T2, human melanocortin 5 receptor; experiment: radioligand competition, [I125]-NDP-α-MSH, hMC5-R membranes; remark: listed apart in the source
[31] = biological target: T2, human melanocortin 5 receptor; experiment: as above; remark: listed apart in the source
[32] = biological target: T4, human melanocortin 3 receptor; experiment: radioligand competition, [I125]-NDP-α-MSH, hMC3-R membranes; remark: listed apart in the source
[33] = biological target: T5, MC1-R of B-16 mouse melanoma cells; experiment: radioligand competition, [I125]-NDP-α-MSH, B-16 membranes; remark: listed apart in the source
[34] = biological target: T1, human melanocortin 4 receptor; experiment: cell-based or functional assay; remark: listed apart in the source
[35] = biological target: T1, human melanocortin 4 receptor; experiment: radioligand competition, [I125]-NDP-α-MSH, hMC4-R membranes; remark: listed apart in the source
[36] = biological target: T2, human melanocortin 5 receptor; experiment: radioligand competition, [I125]-NDP-α-MSH, hMC5-R membranes; remark: listed apart in the source
[37] = biological target: T1, human melanocortin 4 receptor; experiment: radioligand competition, [I125]-NDP-α-MSH, hMC4-R membranes; remark: listed apart in the source
[38] = biological target: T1, human melanocortin 4 receptor; experiment: cell-based or functional assay; remark: listed apart in the source
[39] = biological target: T5, MC1-R of B-16 mouse melanoma cells; experiment: radioligand competition, [I125]-NDP-α-MSH, B-16 membranes; remark: listed apart in the source
[40] = biological target: T4, human melanocortin 3 receptor; experiment: radioligand competition, [I125]-NDP-α-MSH, hMC3-R membranes; remark: listed apart in the source

B1: Ac-Nle-cyclo(-Asp-Trp-D-Phe-Arg-Nal 1-Lys)-NH-CH2-CH3 (peptide)
peptide: Ac-[Nle]DW[dF]R[1Nal]K-NHEt
modifications: lactam 2-7
SMILES: CCCC[C@H](NC(C)=O)C(=O)N[C@H]1CC(=O)NCCCC[C@@H](C(=O)NCC)NC(=O)[C@H](Cc2cccc3ccccc23)NC(=O)[C@H](CCCNC(=N)N)NC(=O)[C@@H](Cc2ccccc2)NC(=O)[C@H](Cc2c[nH]c3ccccc23)NC1=O
notes: also called Compound No. 38
- Ki [1]: 9 nM
- Ki [2]: 47 nM
- EC50 (nM) (cAMP), High Receptor Density System [3]: 10 nM
- Ki [4]: 30 nM
- Ki [5]: 77 nM
- EC50 (nM), normal system (cAMP) [6]: 120 nM
- intrinsic activity, normal system (cAMP) [6]: 0.6
- Ki [7]: 4.2 nM

B2: NH2-(CH2)6-C(=O)-Ser(Bzl)-(D)Phe(4-Cl)-Arg-Trp-NH2 (peptide)
peptide: [Ahp][Ser(Bzl)][dPhe(4-Cl)]RW-NH2
modifications: N-terminus assumed
SMILES: N=C(N)NCCC[C@H](NC(=O)[C@@H](Cc1ccc(Cl)cc1)NC(=O)[C@H](COCc1ccccc1)NC(=O)CCCCCCN)C(=O)N[C@@H](Cc1c[nH]c2ccccc12)C(N)=O
notes: also called Compound No. 1
- Ki [8]: 3 nM
- Ki [9]: 27 nM
- Ki [10]: 351 nM
- Ki [11]: 208 nM
- EC50 (nM) (cAMP), High Receptor Density System [12]: 21 nM
- EC50 (nM) at MC4-R in a normal system (cAMP) [6]: 296 nM
- intrinsic activity, normal system (cAMP) [6]: 0.32

Binder: Ac-DW[d2Nal]R[2Nal]K-NHMe (lactam 1-6, also called Compound No. 35) [Ac-cyclo(Asp-Trp-D-Nal 2-Arg-Nal 2-Lys)-NH-CH3]
- Ki [13]: 6 nM
- Ki [14]: 643 nM
- Ki [15]: 0.06 nM
- Ki [16]: 3 nM

B3: NH2-(CH2)6-C(=O)-Ser(Bzl)-D-Phe(4-Cl)-Arg-Trp-Asp-NH2 (peptide)
peptide: [Ahp][Ser(Bzl)][dPhe(4-Cl)]RWD-NH2
modifications: N-terminus assumed
SMILES: N=C(N)NCCC[C@H](NC(=O)[C@@H](Cc1ccc(Cl)cc1)NC(=O)[C@H](COCc1ccccc1)NC(=O)CCCCCCN)C(=O)N[C@@H](Cc1c[nH]c2ccccc12)C(=O)N[C@@H](CC(=O)O)C(N)=O
notes: also called Compound No. 13
- Ki [17]: 760 nM
- Ki [18]: 9 nM
- Ki [19]: 596 nM
- EC50 (nM), normal system (cAMP) [6]: 568 nM
- intrinsic activity, normal system (cAMP) [6]: 0.5
- Ki [20]: 180 nM
- EC50 (nM) (cAMP), High Receptor Density System [21]: 34 nM

Binder: Ac-DH[dF]RWK-NHEt (lactam 1-6, also called Compound No. 40) [Ac-cyclo(-Asp-His-D-Phe-Arg-Trp-Lys)-NH-CH2-CH3]
- EC50 (nM) (cAMP), Low Receptor Density System [22]: 3.1 nM
- Ki [23]: 5 nM
- Ki [4]: 0.52 nM
- Ki [24]: 6 nM
- Ki [25]: 84 nM
- EC50 (nM), normal system (cAMP) [6]: 3 nM
- intrinsic activity, normal system (cAMP) [6]: 0.6

Binder: Ac-[Nle]DW[dF]R[1Nal]K-NMe2 (lactam 2-7, also called Compound No. 36) [Ac-Nle-cyclo(-Asp-Trp-D-Phe-Arg-Nal 1-Lys)-N(CH3)2]
- EC50 (nM) (cAMP), High Receptor Density System [26]: 4 nM
- Ki [27]: 12 nM
- Ki [4]: 39 nM
- Ki [28]: 231 nM
- Ki [29]: 38 nM
- EC50 (nM), normal system (cAMP) [6]: 272 nM
- intrinsic activity, normal system (cAMP) [6]: 0.8
- Ki [30]: 31 nM

B4: Ac-Nle-cyclo(-Asp-His-D-Phe-Arg-Nal 1-Lys)-N(CH3)2 (peptide)
peptide: XDHFRXK
modifications: N-terminal acetyl; Nle at 1 (X); D-Phe at 4; Nal 1 at 6 (X); cyclo(Asp 2 to Lys 7); C-terminal dimethylamide -N(CH3)2
notes: also called Compound No. 37
- Ki [31]: 50 nM
- Ki [32]: 111 nM
- Ki [33]: 0.39 nM
- Ki [4]: 0.08 nM
- EC50 (nM) (cAMP), High Receptor Density System [34]: 0.6 nM
- EC50 (nM) (cAMP), Low Receptor Density System [34]: 2.1 nM
- Ki [35]: 5 nM
- EC50 (nM), normal system (cAMP) [6]: 44 nM
- intrinsic activity, normal system (cAMP) [6]: 0.7

B5: Ac-Nle-cyclo(-Asp-His-D-Phe-Arg-Nal 1-Lys)-NH-CH2-CH3 (peptide)
peptide: XDHFRXK
modifications: N-terminal acetyl; Nle at 1 (X); D-Phe at 4; Nal 1 at 6 (X); cyclo(Asp 2 to Lys 7); C-terminal ethylamide -NH-CH2-CH3
notes: also called Compound No. 39
- Ki [36]: 63 nM
- Ki [4]: 0.04 nM
- Ki [37]: 2 nM
- EC50 (nM) (cAMP), High Receptor Density System [38]: 1.1 nM
- EC50 (nM) (cAMP), Low Receptor Density System [38]: 10 nM
- Ki [39]: 0.07 nM
- EC50 (nM), normal system (cAMP) [6]: 0.2 nM
- intrinsic activity, normal system (cAMP) [6]: 0.6
- Ki [40]: 28 nM
